{"source": "paper PMC4980431", "about": "“Ctf4 Is a Hub in the Eukaryotic Replisome that Links Multiple CIP-Box Proteins to the CMG Helicase” (Molecular Cell, 2016)", "molecules": {"B1": {"name": "Ctf4-I901E: Ctf4 with glutamate mutation of I901 (protein)", "chain": "MVSVIDKLVFDFGGKTLVSLAPDNNTLCVANKNGLTKILKTNNPEEEPETLDSSKLVSSIKCYSNSHFLMTTMQGDALRYNIDSSQEELLARFALPLRDCCVIHSGKMAVFGGDDLELILLELDDETHKKHAIKIDEQVSQISYNSQMNILAVSMINGKVQIFSLTSTIPNKVHELNDYIVANSYDDTHRDKILSNMMDDIDKDNDNDLSETADPDENNVADPEFCAANRICTRVAWHPKGLHFALPCADDTVKIFSIKGYSLQKTLSTNLSSTKAHFIDLQFDPLRGTYIAAVDLNNKLTVWNWETSEIHYTREFKRKITNIAWKIQADSKTLDLVLGTWSGSIAIVQNLAESVVSNIPDQSVAESSTKHGLFVDSESDLENLEGNDDINKSDKLFSDITQEANAEDVFTQTHDGPSGLSEKRKYNFEDEEDFIDDDDGAGYISGKKPHNEHSYSRVHKTHSFPISLANTGKFRYMPFSPAGTPFGFTDRRYLTMNEVGYVSTVKNSEQYSITVSFFDVGRFREYHFEDLFGYDLCFLNEKGTLFGQSKTGQIQYRPHDSIHSNWTKIIPLQAGERITSVAATPVRVIVGTSLGYFRSFNQFGVPFAVEKTSPIVALTAQNYRVFSVHYSQFHGLSYSLSELGTSSKRYYKRECPLPMSLPNINSDMKKDANLDYYNFNPMGIKSLFFSSYGDPCIFGSDNTLLLLSKWRSPEESKWLPILDSNMEIWKMSGGKETTDIHVWPLALAYDTLNCILVKGKHIWPEFPLPLPSEMEIRMPVFVKSKLLEENKAILNKKNEIGADTEAEEGEEDKEIQIPVSMAAEEEYLRSKVLSELLTDTLENDGEMYGNENEVLAALNGAYDKALLRLFASACSDQNVEKALSLAHELKQDRALTAAVKESERAELPSLVKKINNIREARYEQQLK"}, "B2": {"name": "tagged form of Tof2: tagged form of Tof2 expressed in budding yeast cells (protein)", "chain": "MIKMWRLQIVLVPPSAQDIITFLEARLNTPQSVSPMVQYNEDIITHNNSINNCSDPSPTSPSSQNSIQSNRSSDFINYLPNCKKFLHFTDGDNTLLQLSNEILTKFDRLYPNFKESIEIVSLQDRHGCDLDSEFIIKDVFENDGVVLVILKDELDWSRNQHISLLQLARQRRRQDNKPSTKSIVTEKRKKISKEDLSSISNKDTMHLIAKSSLKNNFINKSRVSTPLMNEILPLASKYDALNKEKCPMPLTSTVVASNVHKDVKDHARAKEGVVTQGSDNNKENIPSSTQQQKNDGAKRAESKDLDLLRNSSEDADYEPADENSPQISFDSIDTDFQLSTTSHTNSDMHIQYSNPSSGAHSPRKSSLEIKVQNKKGDDLPLNDKDIGENCRRIEAFSDEEDFNETDNDRADSFINNSKKASMGFRDINSDLDSVSFNSDIENAVQSTQSTKNVVSPPFFPEKELNNRLHQSQGKEALFRLVEKEFPDKSLGAASSTSHAKDVKIQETIRKLNRFKPTGETKVQKRNSITEPYYGKFGIMKKDKPKSITSKGVSLETKHFDDPNTIISGEKFAKFGKIKVKRKTDDVGSKVIEFKRKRNMGNRSLKDIFANAGKPPNAASTIKVVKLMRDPVDNSKDKVEATSNSTAQEQEQVSPKLPVMNSTPGKRKNGQAIPSSLERTPQLKKVKVTRSHSSPSSSSSMSLESSLDSSSSDDSDDDSDSRNVQVKKINFKTSHGPAGNSNGKPMLDVDDNEINTKKYQTPKYVESDEDDQ", "modifications": "left off: ProteinA, end not stated, kept", "notes": "tagged form of Tof2 expressed in budding yeast cells"}, "B3": {"name": "Ctf4-4E 471–927 (domain or fragment, budding yeast, UniProt Q01454 471-927, looked up)", "chain": "TGKFRYMPFSPAGTPFGFTDRRYLTMNEVGYVSTVKNSEQYSITVSFFDVGRFREYHFEDLFGYDLCFLNEKGTLFGQSKTGQIQYRPHDSIHSNWTKIIPLQAGERITSVAATPVRVIVGTSLGYFRSFNQFGVPFAVEKTSPIVALTAQNYRVFSVHYSQFHGLSYSLSELGTSSKRYYKRECPLPMSLPNINSDMKKDANLDYYNFNPMGIKSLFFSSYGDPCIFGSDNTLLLLSKWRSPEESKWLPILDSNMEIWKMSGGKETTDIHVWPLALAYDTLNCILVKGKHIWPEFPLPLPSEMEIRMPVFVKSKLLEENKAILNKKNEIGADTEAEEGEEDKEIQIPVSMAAEEEYLRSKVLSELLTDTLENDGEMYGNENEVLAALNGAYDKALERLFESACSDQNVEKALSLAHELKQDRALTEAVKESERAELPSLVKKINNIREARYEQQLK", "notes": "also called Ctf4CTD 4E mutant protein; source: purified protein"}, "B4": {"name": "Ctf4 471–927 (domain or fragment, budding yeast, UniProt Q01454 471-927, looked up)", "chain": "B3 chain with E397L, E401A, E427A, E431I", "notes": "also called Ctf4CTD; source: purified Ctf4CTD protein"}}, "key": {"Ctf4 471-927 (Ctf4CTD)": {"target": "T1, Ctf4 471-927 (Ctf4CTD) (Saccharomyces cerevisiae, UniProt Q01454)", "T1 sequence (Q01454 471-927)": "B3 chain with E397L, E401A, E427A, E431I", "experiment": "Fluorescence anisotropy, peptide binding to Ctf4 471-927", "design": "species or system budding yeast", "conditions": "legend of Figure S3C; 50 nM fluorescein-labeled Dna2 peptide, pH 7.2, 25°C; mean of three independent experiments", "description": "The lowest concentration of peptide at which the binding studies could be performed was determined via peptide calibration curves. Fluorescence anisotropy measurements were recorded in a PHERAstar Plus multi-detection plate reader (BMG Labtech) equipped with fluorescence polarization optic module (λex = 485 nm; λem = 520 nm) at 25°C. Each data point is the mean of 200 flashes/well. The voltage gain was set by adjusting the target mP values of fluorescein-labeled peptides relative to that of fluorescein (35 mP). Serial dilutions of Ctf4CTD were made in 20 mM HEPES (pH 7.2), 140 mM KCl, and 5% (w/v) glycerol in the presence of 40 nM (Sld5 and Tof2) or 50 nM (Dna2) fluorescein-labeled peptide. For Dna2 peptide, each data point is the mean of three independent experiments and curve fitting to the experimental data was performed in pro Fit 6.2 (QuantumSoft) using a Levenberg-Marquardt fitting algorithm in combination with a Gaussian error distribution analysis."}, "[1]": {"system": "budding yeast cells (W303 background)", "experiment": "Yeast growth in the presence of hydroxyurea", "assay_type": "cell-based", "description": "(§1) Yeast growth, two-hybrid analysis, and immunoprecipitation experiments were performed as described in detail previously ([Maculins et al., 2015], [Maric et al., 2014]). A two-hybrid screen against amino acids 461–927 of Ctf4 was performed by the company Hybrigenics."}, "Ctf4": {"system": "Ctf4", "experiment": "Co-purification with Ctf4 from yeast cell extracts", "assay_type": "cell-based, budding yeast", "conditions": "extracts of yeast cells; S phase and G1-phase; immunoblotting", "description": "Figure 3 Interaction of the Type I CIP-Box Protein Dna2 with Ctf4 Is Important for rDNA Maintenance (A) GAL-DNA2-9MYC CTF4-TAP (YFV22) and GAL-DNA2-9MYC control cells (YFV21) were grown at 30°C in rich medium containing 2% galactose and then treated as in Figure 2D. The Ctf4-TAP was isolated from cell extracts on magnetic beads coupled to IgG. (B) The smallest fragment of Dna2 that interacted with Ctf4 461–927 in the two-hybrid screen (120–456 shown in red) contains a Ctf4-interacting peptide or CIP-box, closely related to those of Sld5 and Pol1 (upper). […] (C) Mutations in the CIP-box of Dna2 abolished the interaction of full-length Dna2 (1–1,522) or Dna2 120–456 to interact with Ctf4 461–927. (D) When soaked into crystals of Ctf4 471–927, the Dna2 CIP-box binds to the helical region of Ctf4, as previously observed for the CIP-boxes of Pol1 and Sld5 ([Simon et al., 2014]). […]\nFigure 4 Tof2 and Dpb2 Define a New Class of Type II CIP-Box Proteins that Bind to a Novel Binding Pocket on the Surface of Ctf4 (A) The smallest fragments of Dpb2 and Tof2 that interacted with Ctf4 461–927 in the two-hybrid screen (shown in red) were each found to contain a putative CIP-box with limited homology to the type I CIP-boxes of Sld5, Dna2, and Pol1. […] The indicated proteins were monitored by immunoblotting. […]"}, "CMG helicase": {"system": "CMG helicase", "experiment": "Co-purification with CMG helicase from yeast cell extracts", "assay_type": "cell-based, budding yeast", "conditions": "extracts of S phase yeast cells; immunoprecipitation, immunoblotting", "description": "(D) Cultures of ctf4-4E MCM4-9MYC (YFV13) and MCM4-9MYC control cells (YSS75) were synchronized in G1-phase at 30°C and then released into S phase for 20 min. The Mcm4-9MYC was isolated from cell extracts by immunoprecipitation and the associated proteins monitored by immunoblotting. (E) ctf4-4E is synthetic lethal with mrc1Δ. The cells were processed as in Figure 1A, and the photos in the lower images were taken after 20 hr growth at 30°C (the scale bars represent 50 μm). See also Figure S2. TEXT PRINTED IN THE PICTURE: (C) Ctf4-4E (471-927): 162 kDa\nas §1"}, "[2]": {"target": "the molecule itself", "experiment": "SEC-MALS; 100 μl at 2 mg/ml on Superdex S200 HR 10/300 in 20 mM HEPES pH 7.2, 160 mM NaCl, 0.5 ml/min"}}, "note": "Positions count from the first letter of the chain named. In names and notes the source's numbering stands. Where a SMILES comes first, the peptide text is derived from it.", "data": [{"molecule": "CC[C@H](C)[C@H](NC(=O)[C@H](CC(=O)O)NC(=O)[C@H](CC(=O)O)NC(=O)[C@H](CC(C)C)NC(=O)[C@@H](NC(=O)[C@H](CC(=O)O)NC(=O)[C@H](CC(=O)O)NC(=O)[C@@H](NC(=O)[C@H](CC(N)=O)NC(=O)[C@H](CCCNC(=N)N)NC(=O)[C@H](CC(C)C)NC(=O)[C@@H](N)CO)[C@@H](C)CC)[C@@H](C)CC)C(=O)N[C@@H](CCC(=O)O)C(=O)NCC(=O)N[C@@H](CC(=O)O)C(=O)N[C@@H](CC(C)C)C(=O)N[C@H](C(=O)O)[C@@H](C)O", "note": "[Dna2 peptide (207-223)] (H-SLRNIDDILDDIEGDLT-OH)", "values": [{"measurement": "Kd", "setting": "Ctf4 471-927 (Ctf4CTD)", "value": 229, "unit": "µM"}]}, {"molecule": "NC(=O)NO", "note": "[hydroxyurea]", "values": [{"measurement": "sensitivity to hydroxyurea, ctf4-3E cells (in words)", "setting": "[1]; ctf4-3E cells compared with ctf4Δ, Figure 5F", "value": "do not share the sensitivity of ctf4Δ cells"}, {"measurement": "sensitivity to hydroxyurea, pol1-4A cells (in words)", "setting": "[1]; pol1-4A cells, in contrast to ctf4Δ, Figure 1B", "value": "does not cause sensitivity"}]}, {"molecule": "nuclease/helicase Dna2: multi-functional nuclease/helicase Dna2, expressed in yeast cells", "values": [{"measurement": "co-purification with Ctf4 (in words)", "setting": "Ctf4", "value": "co-purified with Ctf4"}]}, {"molecule": "B1", "values": [{"measurement": "association with CMG helicase (in words)", "setting": "CMG helicase", "value": "unable to interact with the CMG helicase"}]}, {"molecule": "B2", "values": [{"measurement": "co-purification with Ctf4 (in words)", "setting": "Ctf4", "value": "co-purified with Ctf4 in both G1-phase and S phase"}, {"measurement": "association with CMG helicase (in words)", "setting": "CMG helicase", "value": "co-purified with the CMG helicase during S phase"}]}, {"molecule": "B3", "values": [{"measurement": "stoichiometry N", "setting": "[2]", "value": 3}]}, {"molecule": "B4", "values": [{"measurement": "stoichiometry N", "setting": "[2]", "value": 3}]}]}
